Patent US12043827B2, “Compositions, systems, and methods for base diversification” (Pairwise Plants Services, Inc., priority 2020, dated 2024)

Key:
endogenous loci = assay: Transversion mutations from adenine: ABE7.10 with inosine glycosylases (fusion or in trans), HTS in HEK293T cells; assay type: cell-based; details: fusion constructs and co-transfected constructs with ABE7.10, FIGS. 7A-7B and 8A-8B
Description: The experiment was designed to generate transversion mutations from adenines by promoting inosines to undergo the same cellular DNA repair pathways that generate transversion mutations during translesion-bypass polymerization in cytosine base editing. While not wishing to be bound to any particular theory, it was hypothesized that the key step was to facilitate the glycosylation of inosines generated during adenine base editing. It was hypothesized that once glycosylated, the resulting abasic site can be a substrate for translesion-bypass repair and that this would lead to transversion mutations. Exogenous inosine glycosylases were provided along with ABE to promote inosine glycosylation.
Several inosine glycosylases were screened in HEK293T cells and it was determined whether they were capable of acting on inosines generated by ABE. If inosine is converted into an abasic site, and subsequently repaired through translesion-bypass polymerization, transversion mutations can be generated from adenines.
Five different glycosylases from various species were selected for testing. The following genes were codon-optimized and cloned into a mammalian expression vector, either as unfused gene, or as a C-terminal fusion to ABE7.10 (species source in parenthesis); hMPG (Homo sapiens) having an amino acid sequence of SEQ ID NO:84, mMPG (Mus musculus) having an amino acid sequence of SEQ ID NO:83, rMPG (Rattus norvegicus) having an amino acid sequence of SEQ ID NO:80, SpThp1 (Schizosaccharomyces pombe) having an amino acid sequence of SEQ ID NO:79, MaHDG (Methanosarcina acetivorans) having an amino acid sequence of SEQ ID NO:81, and MbHDG (Methanosarcina barkeri) having an amino acid sequence of SEQ ID NO:82. […] The HEK293T cells were transfected with a plasmid encoding gRNA targeting endogenous loci and either the fusion plasmid or a mixture of plasmids expressing ABE7.10 and the above inosine glycosylases. After 3 days, high-throughput sequencing was used to determine the editing result of targeted adenines. Mock transfection (using pUC19) was used to set baseline editing. All conditions that used ABE7.10 generated 10-20% guanine transition, as expected.

[1] = system: Sites 1-5 (SEQ ID NO:131, 134, 133, 140, 132); assay: Inosine glycosylase homolog testing, C-terminal fusions to ABE8e; assay type: cell-based; details: C-terminal fusion to ABE8e, Sites 1-5, FIG. 16

Molecule	generation of C and T bases from adenine over background (endogenous loci)	adenine to C or T editing activity of adenine diversifiers [1]
hMPG: methylpurine glycosylase from Homo sapiens, SEQ ID NO:84, UniProtKB P29372	significant amount of C and T bases over background	–
SpThp1: uracil DNA glycosylase with activity towards inosine from Schizosaccharomyces pombe, SEQ ID NO:79 (protein, Schizosaccharomyces pombe) MNDIETRDTGTKNDNSSEFNLSVKSHKRKRSFDDENLELEESREETSGGILKKAKTQSFSESLERFRFAHAGSNNEYRKTDVVKNSDTDNGLLKSAVETITLENGLRNRRVNVTKKSTLKASVKKSTLKKKNEVDPALLQGVPDYICENPYAIIVGLNPGITSSLKGHAFASPSNRFWKMLNKSKLLEGNAEFTYLNDKDLPAHGLGITNLCARPSSSGADLRKEEMQDGARILYEKVKRYRPQVGLFISGKGIWEEMYKMLTGKKLPKTFVFGWQPEKFGDANVFVGISSSGRAAGYSDEKKQNLWNLFAEEVNRHREIVKHAV	significant amount of C and T bases over background	–
CgMPG: truncated MPG of Cricetulus griseus, SEQ ID NO:86, fused to C-terminus of ABE8e (protein, listed as Cricetulus griseus) EDHPARLGPEFFDQPAVTLARAFLGQVLVRRLADGTELRGRIVETEAYLGPEDEAAHSRGGRQTPRNRGMFMKPGTLYVYIIYGMYFCLNVSSQGAGACVLLRALEPLEGLDTMRQLRSTLRKSTVSRTLKDRELCSGPSKLCQALAIDKSFDQRDLTQDEAVWLEHGPLATGSPAVVAAARIGIGHAGEWTQKPLRFYVQGSPWVSVVDRVAEQMCQPQQTA	–	displayed the highest activity
CjMPG: truncated MPG of Callithrix jacchus, SEQ ID NO:88, fused to C-terminus of ABE8e (protein, listed as Callithrix jacchus) KGYLTRLGSEFFDQPAVTLAQAFLGQVLVRRLPNGTELRGRIVETEAYLGPEDEAAHSRGGRQTPRNRGMFMKPGTLYVYIIYGMYFCMNISSQGDGACVLLRALEPLEGLETMRQLRSTLRKGTASRVLKDRELCSGPSKLCQALAIDKSFDQRDLAQDEAIWLEHGPLEPSGPTVVAAARVGIGYAGEWSRKPLRFYVRGSPWVSVVDRVAEQDAQA	–	displayed the highest activity
ClMPG: truncated MPG of Canis lupus, SEQ ID NO:87, fused to C-terminus of ABE8e (protein, listed as Canis lupus) KSHSAQLGSDFFDQPAVALARAFLGQVLVRRLDDGTELRGRIVETEAYLGPEDEAAHSRGGRQTPRNRGMFMKPGTLYVYIIYGMYFCLNVSSQGDGACVLLRALEPLGGLETMRQLRSTLRKGTTGRALKDRELCSGPSKLCQALAIDKSFDQRDLAKDRAVWLERSPPGPSEPAVVAAARVGIGHAGEWAQKPLRFYLRGSPWVSVVDRAAEQNAQA	–	displayed the highest activity
mMPG: methylpurine glycosylase from Mus musculus, SEQ ID NO:83, UniProtKB Q04841 (protein, listed as Mus musculus) MPARGGSARPGRGALKPVSVTLLPDTEQPPFLGRARRPGNARAGSLVTGYHEVGQMPAPLSRKIGQKKQRLADSEQQQTPKERLLSTPGLRRSIYFSSPEDHSGRLGPEFFDQPAVTLARAFLGQVLVRRLADGTELRGRIVETEAYLGPEDEAAHSRGGRQTPRNRGMFMKPGTLYVYLIYGMYFCLNVSSQGAGACVLLRALEPLEGLETMRQLRNSLRKSTVGRSLKDRELCSGPSKLCQALAIDKSFDQRDLAQDDAVWLEHGPLESSSPAVVVAAARIGIGHAGEWTQKPLRFYVQGSPWVSVVDRVAEQMDQPQQTACSEGLLIVQK	significant amount of C and T bases over background	–
